T1: biotinylated recombinant human IL-12Rβ2 (produced in-house) (human, UniProt Q99665 24-622, random biotinylated)
T1 construct: also called hIL-12RB2; hIL12RB2
T1 sequence: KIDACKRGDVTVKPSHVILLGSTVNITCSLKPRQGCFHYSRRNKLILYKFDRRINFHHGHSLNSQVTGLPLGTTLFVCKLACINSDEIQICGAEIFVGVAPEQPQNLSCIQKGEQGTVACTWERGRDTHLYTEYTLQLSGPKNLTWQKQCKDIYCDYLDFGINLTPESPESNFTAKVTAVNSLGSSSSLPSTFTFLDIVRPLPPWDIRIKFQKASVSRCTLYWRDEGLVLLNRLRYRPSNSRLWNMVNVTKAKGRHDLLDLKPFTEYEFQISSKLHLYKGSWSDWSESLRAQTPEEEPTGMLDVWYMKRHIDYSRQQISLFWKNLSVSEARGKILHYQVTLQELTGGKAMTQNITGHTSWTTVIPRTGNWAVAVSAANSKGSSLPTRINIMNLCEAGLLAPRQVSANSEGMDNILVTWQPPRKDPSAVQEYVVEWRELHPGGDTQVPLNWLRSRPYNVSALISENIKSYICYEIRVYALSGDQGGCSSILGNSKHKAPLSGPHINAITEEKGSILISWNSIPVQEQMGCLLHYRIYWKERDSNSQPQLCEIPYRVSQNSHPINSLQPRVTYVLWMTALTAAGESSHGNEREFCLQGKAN

T2: human IL-12Rβ2 expressed on cells (human, UniProt Q99665 24-862)
T2 construct: HEK293T cells transiently transfected with a human IL-12Rβ2 plasmid (Genscript OHu21785); also called hIL-12RB2
T2 sequence: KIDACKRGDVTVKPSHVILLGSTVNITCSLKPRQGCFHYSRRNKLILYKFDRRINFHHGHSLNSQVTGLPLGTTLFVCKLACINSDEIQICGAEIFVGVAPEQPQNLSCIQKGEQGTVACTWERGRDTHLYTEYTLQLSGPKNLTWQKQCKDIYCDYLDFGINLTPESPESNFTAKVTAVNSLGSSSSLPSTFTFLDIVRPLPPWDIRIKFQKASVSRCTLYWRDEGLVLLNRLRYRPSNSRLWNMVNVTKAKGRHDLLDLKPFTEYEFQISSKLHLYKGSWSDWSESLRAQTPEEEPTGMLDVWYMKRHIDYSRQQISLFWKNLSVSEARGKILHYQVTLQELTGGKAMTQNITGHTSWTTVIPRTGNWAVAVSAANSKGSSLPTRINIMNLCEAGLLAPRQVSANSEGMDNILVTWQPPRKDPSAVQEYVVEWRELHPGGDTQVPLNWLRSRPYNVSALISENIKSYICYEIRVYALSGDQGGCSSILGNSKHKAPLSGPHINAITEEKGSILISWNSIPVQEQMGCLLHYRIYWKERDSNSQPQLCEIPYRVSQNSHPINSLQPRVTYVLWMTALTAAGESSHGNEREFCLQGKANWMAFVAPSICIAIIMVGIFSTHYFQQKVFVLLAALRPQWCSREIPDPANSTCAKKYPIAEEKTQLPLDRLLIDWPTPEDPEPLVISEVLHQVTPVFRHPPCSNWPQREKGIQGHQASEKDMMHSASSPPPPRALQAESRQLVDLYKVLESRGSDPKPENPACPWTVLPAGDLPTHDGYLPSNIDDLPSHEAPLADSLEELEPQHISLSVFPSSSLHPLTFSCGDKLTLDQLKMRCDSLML

T3: biotinylated recombinant mouse IL-12Rβ2 (produced in-house) (mouse, UniProt P97378 24-637, random biotinylated)
T3 construct: also called mIL-12RB2; mIL12RB2
T3 sequence: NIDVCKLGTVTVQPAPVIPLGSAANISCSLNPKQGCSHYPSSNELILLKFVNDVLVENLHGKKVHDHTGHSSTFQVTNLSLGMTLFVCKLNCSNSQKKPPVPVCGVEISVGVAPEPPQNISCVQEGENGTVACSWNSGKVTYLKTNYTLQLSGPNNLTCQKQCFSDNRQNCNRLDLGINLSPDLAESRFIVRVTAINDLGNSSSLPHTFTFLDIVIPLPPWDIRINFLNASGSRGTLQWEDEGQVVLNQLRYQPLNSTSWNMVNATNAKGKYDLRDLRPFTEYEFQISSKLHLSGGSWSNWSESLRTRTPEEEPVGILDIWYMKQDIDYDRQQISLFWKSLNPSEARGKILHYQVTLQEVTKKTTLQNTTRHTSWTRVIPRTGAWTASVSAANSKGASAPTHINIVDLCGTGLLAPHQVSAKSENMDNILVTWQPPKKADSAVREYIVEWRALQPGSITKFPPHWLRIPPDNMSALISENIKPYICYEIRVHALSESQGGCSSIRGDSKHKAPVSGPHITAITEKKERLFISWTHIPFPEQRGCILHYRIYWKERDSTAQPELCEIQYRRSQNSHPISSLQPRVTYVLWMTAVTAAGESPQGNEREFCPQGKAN

B1: anti-IL-12Rβ2 VHH clone 3CRHS9 (VHH, not shown: small tags and cut ends)
VHH: QVQLQESGGGLVQPGGSLRLSCTASGSIVSIYNMDWYRQAPGNEREWVASITSSGDPYYDGSAKGRFTISRDNAKMTVYLQMNSLKPEDTAVYYCKVPTEKGNYWGQGTQVTVSS
notes: tested as periplasmic extract
B2: anti-IL-12Rβ2 VHH clone 3CRHS128 (VHH, not shown: small tags and cut ends)
VHH: QVQLQESGGGLVQPGGSLRLSCAASGFTFSTSGMHWFRQAPGKGLEWVSSIGATVDNSYYASSVKGRFTISRDNAKNTLYLLMNSLKSEDTAVYYCSKDPTGSSRGQGTQVTVSS
notes: tested as periplasmic extract; also called SCRHS128
B3: anti-IL-12Rβ2 VHH clone 3CAHS102 (VHH, not shown: small tags and cut ends)
VHH: QVQLQESGGGLVQPGGSLRLSCAASGSILRINLMGWYRQVPGKQRELVAEMSTGGSTTYVDSVEGRFTISRDNAKNTVYLQMNSLKPEDTAVYYCNAKAWQLGRLENDDWGQGTQVTVSS
notes: tested as periplasmic extract
B4: anti-IL-12Rβ2 VHH clone 3CAHS142 (VHH, not shown: small tags and cut ends)
VHH: QVQLQESGGGLVQAGESLTLSCIASGVIKDYAMGWFRQAPGKEREFVAAISWSGVSIYYADSVKGRFTISRDNAKNTVYLQMNSLEPEDTAVYYCAGTEGAYTVAGGSTFGYDMDYWGKGTQVTVSS
notes: tested as periplasmic extract
B5: anti-IL-12Rβ2 VHH clone 3CRHS163 (VHH, not shown: small tags and cut ends)
VHH: QVQLQESGGGLVQPGGSLRLSCTASGFAFSTYWMYWIRQSPEKGFEWVSVVNTGGDITYYADSVKGRFTISRDNAKNTLYLQMNSLKPEDTALYYCARDRTTMSYTRTYYRGGQGTQVTVSS
notes: tested as periplasmic extract
B6: anti-IL-12Rβ2 VHH clone 3CAHS124 (VHH, not shown: small tags and cut ends)
VHH: QVQLQESGGGLVQPGGSLRLSCAASGRTINAYIMGWFRQAPGKEREFVAAVSGSGGSTYYADSVKGRFTISRDNAKNTVNLQMDNLRSEDTDVYYCAATYESVYLQNPGQYDYWGQGTQVTVSS
notes: tested as periplasmic extract
B7: anti-IL-12Rβ2 VHH clone 3CRH25 (VHH, not shown: small tags and cut ends)
VHH: QVQLQESGGGLVQAGDSLRLSCTASGHTFSRYTTIGWFRQAPGKDREFVAAIRWSGDITDYADAVKGRFTISRDNVKNTVYLQMNSLNPEDTAVYYCARGYSEYGVLSRNRGLYAYWGQGTQVTVSS
notes: tested as periplasmic extract
B8: anti-IL-12Rβ2 VHH clone 3CRHS106 (VHH, not shown: small tags and cut ends)
VHH: QVQLQESGGGLVQPGGSLRLSCKASGFTFSTYAMSWVRQAPGKGLEWVSAVNSGGLSTDYADSVEGRFTISRDDAKNMLFLQMNSLKPEDTARYYCAKYEDCSDYMCHRDRAGYWGQGTQVTVSS
notes: tested as periplasmic extract
B9: anti-IL-12Rβ2 VHH clone 3CRH5 (VHH, not shown: small tags and cut ends)
VHH: QVQLQESGGGLVQAGGSLVLSCAASGSAALIFLMSWYRQAPGKQRELVAEVSRGGSTTYADSVEGRFTISRDNAKNIVDLQMNSLKPEDTAVYYCKADQNYGDSLRSSWGQGTQVTVSS
notes: tested as periplasmic extract; also called 3CRHS

Assays:
[1] = biological target: T1, biotinylated recombinant human IL-12Rβ2 …; assay: ELISA, P.E. VHH on biotinylated hIL-12RB2, signal ratio to control well
[2] = biological target: T1, biotinylated recombinant human IL-12Rβ2 …; assay: BLI (Octet), P.E. VHH on immobilised biotinylated hIL-12RB2
[3] = biological target: T2, human IL-12Rβ2 expressed on cells; assay: flow cytometry, P.E. VHH on HEK293T cells transiently expressing hIL-12RB2
[4] = biological target: T3, biotinylated recombinant mouse IL-12Rβ2 …; assay: ELISA, P.E. VHH on biotinylated mIL-12RB2
[5] = biological target: T3, biotinylated recombinant mouse IL-12Rβ2 …; assay: ELISA, P.E. VHH on biotinylated mIL-12RB2, signal ratio to control well
[6] = biological target: T1, biotinylated recombinant human IL-12Rβ2 …; assay: BLI (Octet), P.E. VHH on immobilised biotinylated hIL-12RB2, 1:1 model

Binder | ELISA hIL12RB2/control [1] | Response [2] | dMFI [3] | binding result [4] | ELISA mIL12RB2/control [5] | koff [6] [s⁻¹]
B1 | 5.08 | 0.222 | 941 | no binding | 1.09 | 0.0034
B2 | 3.65 | 0.294 | 1380 | no binding | 0.98 | 0.00274
B3 | 3.54 | 0.323 | 994 | no binding | 1.02 | 0.00267
B4 | 4.98 | 0.352 | 812 | no binding | 1.07 | 0.00324
B5 | 3.58 | 0.339 | 1050 | no binding | 0.93 | 0.00302
B6 | 5.67 | 0.293 | 1100 | no binding | 1 | 0.00324
B7 | 5.16 | 0.523 | 520 | no binding | 1.04 | 0.00205
B8 | 10.2 | 0.297 | 1010 | no binding | 1.03 | 0.00355
B9 | 8.64 | 0.491 | 735 | no binding | 0.81 | 0.00337

— patent US20260209362A1 (VIB VZW, published 2026)
